The values below are quoted from earlier work in publication PMC8044391.

pKd: −log10 of the molar value.

For this data set, the target named is ICAM-1 (Homo sapiens) (UniProt P05362).
Chain of ICAM-1 (Homo sapiens) (P05362 28-480): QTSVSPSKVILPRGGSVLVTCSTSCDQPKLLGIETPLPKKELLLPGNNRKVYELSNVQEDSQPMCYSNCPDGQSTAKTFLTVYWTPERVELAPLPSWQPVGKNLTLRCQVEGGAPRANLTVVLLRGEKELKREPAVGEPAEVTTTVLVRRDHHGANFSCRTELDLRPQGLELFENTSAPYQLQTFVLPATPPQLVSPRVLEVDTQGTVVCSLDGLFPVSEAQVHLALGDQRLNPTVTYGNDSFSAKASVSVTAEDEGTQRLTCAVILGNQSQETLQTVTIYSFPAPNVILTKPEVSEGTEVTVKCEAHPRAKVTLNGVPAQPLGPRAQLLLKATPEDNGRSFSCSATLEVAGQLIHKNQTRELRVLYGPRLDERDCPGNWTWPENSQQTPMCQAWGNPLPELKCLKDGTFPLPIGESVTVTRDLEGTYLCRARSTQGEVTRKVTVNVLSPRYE

Chain of integrin αLβ2 (P20701 26-1090): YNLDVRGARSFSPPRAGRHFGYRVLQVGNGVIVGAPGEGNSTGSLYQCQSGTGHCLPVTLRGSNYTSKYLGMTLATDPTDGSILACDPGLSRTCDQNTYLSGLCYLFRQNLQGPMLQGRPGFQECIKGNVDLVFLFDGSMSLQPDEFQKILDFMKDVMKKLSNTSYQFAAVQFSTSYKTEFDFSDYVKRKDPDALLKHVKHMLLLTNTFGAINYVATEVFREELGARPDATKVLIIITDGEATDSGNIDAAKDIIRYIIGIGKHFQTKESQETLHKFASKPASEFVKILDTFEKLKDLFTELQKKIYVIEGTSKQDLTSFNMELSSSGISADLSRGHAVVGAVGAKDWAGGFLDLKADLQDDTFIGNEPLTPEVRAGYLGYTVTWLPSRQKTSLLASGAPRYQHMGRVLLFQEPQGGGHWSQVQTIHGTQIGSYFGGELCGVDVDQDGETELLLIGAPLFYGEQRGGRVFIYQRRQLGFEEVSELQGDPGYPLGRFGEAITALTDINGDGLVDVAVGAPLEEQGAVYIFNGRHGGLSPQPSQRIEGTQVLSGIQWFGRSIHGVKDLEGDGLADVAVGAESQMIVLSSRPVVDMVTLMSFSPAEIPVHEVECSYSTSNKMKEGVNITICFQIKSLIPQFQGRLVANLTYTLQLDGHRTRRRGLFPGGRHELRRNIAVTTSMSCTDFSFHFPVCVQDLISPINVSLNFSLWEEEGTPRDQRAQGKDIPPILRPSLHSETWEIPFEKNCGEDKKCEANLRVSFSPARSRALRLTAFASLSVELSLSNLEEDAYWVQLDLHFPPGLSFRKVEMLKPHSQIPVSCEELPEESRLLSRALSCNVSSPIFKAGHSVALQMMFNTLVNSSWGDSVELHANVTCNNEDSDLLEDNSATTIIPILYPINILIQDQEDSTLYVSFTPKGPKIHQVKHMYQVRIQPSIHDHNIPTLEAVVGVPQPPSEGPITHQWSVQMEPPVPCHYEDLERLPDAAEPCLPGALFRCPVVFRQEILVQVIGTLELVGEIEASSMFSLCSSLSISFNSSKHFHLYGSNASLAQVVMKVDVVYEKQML
Chain of integrin αLβ2 (P05107 23-700, further chain): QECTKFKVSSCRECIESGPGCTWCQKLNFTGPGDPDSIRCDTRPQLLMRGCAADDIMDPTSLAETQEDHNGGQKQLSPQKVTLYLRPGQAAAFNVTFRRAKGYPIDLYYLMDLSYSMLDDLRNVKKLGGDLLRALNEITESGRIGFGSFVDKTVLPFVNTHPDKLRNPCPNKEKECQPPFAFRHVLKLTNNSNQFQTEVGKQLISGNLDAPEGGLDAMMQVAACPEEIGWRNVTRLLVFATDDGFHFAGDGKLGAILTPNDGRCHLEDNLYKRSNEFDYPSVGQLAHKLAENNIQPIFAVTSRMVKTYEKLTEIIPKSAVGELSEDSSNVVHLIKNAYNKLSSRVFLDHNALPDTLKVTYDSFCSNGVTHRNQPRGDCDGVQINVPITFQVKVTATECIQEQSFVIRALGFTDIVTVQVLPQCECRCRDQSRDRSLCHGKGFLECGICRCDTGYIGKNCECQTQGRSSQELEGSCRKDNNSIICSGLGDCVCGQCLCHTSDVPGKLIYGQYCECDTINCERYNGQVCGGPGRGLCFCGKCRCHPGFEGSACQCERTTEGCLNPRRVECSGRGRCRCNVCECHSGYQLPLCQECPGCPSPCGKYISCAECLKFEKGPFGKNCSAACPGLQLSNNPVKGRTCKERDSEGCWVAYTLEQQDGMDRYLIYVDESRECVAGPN

As usually defined, the pKd is the negative decadic logarithm of the Kd, by convention in mol/L. With integrin αLβ2 (from UniProt P20701), the pKd was 4.59.
